Results taken from patent CN113939539A (BIOSION BIO TECH NANJING CO LTD, dated 2022).

What was measured:
[1] = biological target: T1, 生物素标记的人CSF-1R-Fc蛋白 (human, biotin-labelled (sites not given)); assay: capture ELISA: antibody captured by anti-human IgG, biotin-CSF-1R-Fc in solution
T1 construct: Made in-house; also called human CSF-1R-Fc

[2] = biological target: T2, 重组人CSF-1R-his蛋白 (Acro biosystems, Cat#CSR-H5228) (human, UniProt P07333 20-512); assay: BLI (Octet), antibody on AHC sensor, CSF-1R-his in solution
T2 construct: Bought protein; also called human CSF-1R-his; not shown: His tag

[3] = biological target: T3, 猴CSF-1R-his蛋白 (内部制备, SEQ ID NO: 62) (monkey (cynomolgus), UniProt P07333 20-517 (human entry), limits assumed); assay: indirect ELISA on coated monkey CSF-1R-his
T3 construct: Made in-house, coated in the indirect ELISA; also called monkey CSF-1R-his (in-house)
T3 chain: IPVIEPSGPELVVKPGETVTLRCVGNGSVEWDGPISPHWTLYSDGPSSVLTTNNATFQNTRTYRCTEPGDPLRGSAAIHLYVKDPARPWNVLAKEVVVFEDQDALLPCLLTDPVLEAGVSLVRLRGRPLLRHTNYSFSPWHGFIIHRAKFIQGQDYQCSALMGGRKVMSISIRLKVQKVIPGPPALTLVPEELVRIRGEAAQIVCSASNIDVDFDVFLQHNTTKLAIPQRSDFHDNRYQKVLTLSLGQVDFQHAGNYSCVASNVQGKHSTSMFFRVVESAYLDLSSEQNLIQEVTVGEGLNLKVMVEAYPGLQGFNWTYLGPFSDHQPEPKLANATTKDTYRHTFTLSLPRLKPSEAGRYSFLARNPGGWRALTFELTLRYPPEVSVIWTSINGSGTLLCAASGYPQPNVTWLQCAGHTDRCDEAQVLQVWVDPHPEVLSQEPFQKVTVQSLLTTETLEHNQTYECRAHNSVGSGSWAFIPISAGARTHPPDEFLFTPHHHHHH

Measured: binding result

T1 sequence (chain, as listed by the source limits assumed): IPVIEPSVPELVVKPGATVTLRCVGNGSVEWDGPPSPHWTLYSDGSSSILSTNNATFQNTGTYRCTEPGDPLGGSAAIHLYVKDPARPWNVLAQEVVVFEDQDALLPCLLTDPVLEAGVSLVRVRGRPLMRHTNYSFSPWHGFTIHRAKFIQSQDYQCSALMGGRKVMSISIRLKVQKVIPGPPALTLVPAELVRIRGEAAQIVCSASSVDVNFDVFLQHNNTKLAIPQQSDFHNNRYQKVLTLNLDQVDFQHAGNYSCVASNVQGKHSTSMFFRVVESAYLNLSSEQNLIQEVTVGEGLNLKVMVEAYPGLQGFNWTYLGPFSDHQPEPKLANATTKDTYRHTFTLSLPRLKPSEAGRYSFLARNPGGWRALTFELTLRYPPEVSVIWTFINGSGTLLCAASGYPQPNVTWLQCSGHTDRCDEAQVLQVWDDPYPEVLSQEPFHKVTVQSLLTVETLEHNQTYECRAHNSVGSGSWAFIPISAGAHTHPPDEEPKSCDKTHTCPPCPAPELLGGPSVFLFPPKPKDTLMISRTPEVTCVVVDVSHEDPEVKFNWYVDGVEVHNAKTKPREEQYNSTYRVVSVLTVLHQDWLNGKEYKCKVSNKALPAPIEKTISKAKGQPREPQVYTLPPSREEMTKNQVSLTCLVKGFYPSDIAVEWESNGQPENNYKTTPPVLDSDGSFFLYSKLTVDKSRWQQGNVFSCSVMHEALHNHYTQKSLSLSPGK
T2 sequence (P07333 20-512 limits assumed): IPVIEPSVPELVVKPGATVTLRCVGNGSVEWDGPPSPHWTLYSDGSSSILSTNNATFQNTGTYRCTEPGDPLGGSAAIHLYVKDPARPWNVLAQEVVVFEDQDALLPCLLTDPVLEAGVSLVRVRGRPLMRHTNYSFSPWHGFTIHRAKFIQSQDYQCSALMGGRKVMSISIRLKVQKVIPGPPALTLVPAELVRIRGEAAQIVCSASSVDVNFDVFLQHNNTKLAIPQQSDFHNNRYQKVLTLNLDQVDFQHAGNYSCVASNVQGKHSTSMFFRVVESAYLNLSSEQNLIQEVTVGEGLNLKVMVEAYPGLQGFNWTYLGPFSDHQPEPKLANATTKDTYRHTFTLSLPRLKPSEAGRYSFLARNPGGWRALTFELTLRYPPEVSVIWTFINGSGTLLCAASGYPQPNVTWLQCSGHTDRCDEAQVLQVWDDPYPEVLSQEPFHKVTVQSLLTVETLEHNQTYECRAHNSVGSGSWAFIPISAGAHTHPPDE

B1: 卡比利珠单抗 (antibody, human IgG4 S228P, kappa, V domains shown)
VH: QVQLVQSGAEVKKPGSSVKVSCKASGYTFTDNYMIWVRQAPGQGLEWMGDINPYNGGTTFNQKFKGRVTITADKSTSTAYMELSSLRSEDTAVYYCARESPYFSNLYVMDYWGQGTLVTVSS
VL: NIVLTQSPATLSLSPGERATLSCKASQSVDYDGDNYMNWYQQKPGQAPRLLIYAASNLESGIPARFSGSGSGTDFTLTISSLEPEDFAVYYCHLSNEDLSTFGGGTKVEIKR
notes: Made in-house; also called Cabiralizumab; 对照基准物
binds: all assays above
